Assay results from US20150218243A1 (SAMSUNG ELECTRONICS, published 2015).

Molecular target: T1, recombinant full length Human Cdk6 (amino acids 1-326) with N-terminal His tag (Abcam ab84717) (human, UniProt Q00534 1-326)
T1 construct: range 1-326; Bought protein, coated on the ELISA plate at 1 ug/ml; also called Cdk6 protein; not shown: N-terminal His tag of the bought protein
Test: ELISA, Cdk6 coated on plate, p15 variant at 0-10 uM, anti-GST primary and HRP secondary antibody, absorbance 450 nm

T1 sequence (Q00534 whole entry, the tested form may be a part): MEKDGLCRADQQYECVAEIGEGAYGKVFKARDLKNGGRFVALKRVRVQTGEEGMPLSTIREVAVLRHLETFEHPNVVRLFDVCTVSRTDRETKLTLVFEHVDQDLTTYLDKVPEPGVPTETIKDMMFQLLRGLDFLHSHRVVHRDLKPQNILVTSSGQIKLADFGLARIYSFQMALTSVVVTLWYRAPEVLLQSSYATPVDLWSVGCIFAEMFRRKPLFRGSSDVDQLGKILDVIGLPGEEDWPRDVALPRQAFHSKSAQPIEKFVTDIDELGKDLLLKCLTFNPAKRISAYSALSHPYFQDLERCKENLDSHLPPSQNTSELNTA

- binding result: binds
B1: human p15 protein variant (SEQ ID NO: 2) (other)
chain: MREENKGMPSGGGSDEGLASAAARGLVEKVRQLLEAGADPNGVNRFGRRAIQVMMMGSARVAELLLKHGAEPNSADPATSTRPVHDAAREGFLDTLVVLHRAGARLDARDAWGRTPVDLAEERGHRDVAGYLRTATGD
notes: Expressed in E. coli from pET21b (NdeI/XhoI) and purified on a HisTrap column and by SEC; also called mt p15; p15INK4b variant
